Legend:
[1] = target: Recombinant Human Axl Protein Axl-tag 5 (human) (UniProt P30530); test: competition ELISA on immobilized Axl-tag 5; unlabeled antibody 50 ug/mL; competitor Biot-v77-2a37.1 1 ug/mL (signal is of the biotinylated antibody)
[2] = target: Recombinant Human Axl Protein Axl-tag 5 (human) (UniProt P30530); test: competition ELISA on immobilized Axl-tag 5; unlabeled antibody 50 ug/mL; competitor Biot-M77-297b81.1.1 1 ug/mL (signal is of the biotinylated antibody)
[3] = target: Recombinant Human Axl Protein Axl-tag 5 (human) (UniProt P30530); test: competition ELISA on immobilized Axl-tag 5; unlabeled antibody 50 ug/mL; competitor Biot-M77-297b81.1.1 1 ug/mL
[4] = target: Recombinant Human Axl Protein Axl-tag 5 (human) (UniProt P30530); test: competition ELISA on immobilized Axl-tag 5; unlabeled antibody 50 ug/mL; competitor Biot-v77-2a37.1 1 ug/mL

Sequence of UniProt P30530 (P30530 26-451): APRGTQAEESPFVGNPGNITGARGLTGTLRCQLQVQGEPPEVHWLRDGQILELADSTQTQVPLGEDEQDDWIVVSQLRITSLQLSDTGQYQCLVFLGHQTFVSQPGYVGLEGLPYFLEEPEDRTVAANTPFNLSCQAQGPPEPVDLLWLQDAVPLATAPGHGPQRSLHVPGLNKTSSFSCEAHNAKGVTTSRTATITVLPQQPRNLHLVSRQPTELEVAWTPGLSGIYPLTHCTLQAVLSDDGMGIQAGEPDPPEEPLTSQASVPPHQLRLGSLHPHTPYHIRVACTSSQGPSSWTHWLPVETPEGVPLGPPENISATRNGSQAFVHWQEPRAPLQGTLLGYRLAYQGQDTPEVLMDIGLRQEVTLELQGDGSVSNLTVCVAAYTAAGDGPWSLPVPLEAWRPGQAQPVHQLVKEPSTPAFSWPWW

- OD (650 nm) [1]: 1.81 OD (650 nm)
- OD (650 nm) [2]: 2.13 OD (650 nm)
- % competition [3]: 1.5%
- % competition [4]: 3.3%
Substance: AXL(C89E7) rabbit anti-human Axl monoclonal antibody (Cell Signaling)
